Data as given in paper PMC6690836 (Angewandte Chemie (International ed. in English), 2016).

Target: the molecule itself
Experiment: crystal structure

B1: Water soluble chlorophyll binding protein from cauliflower (CaWSCP), recombinant, assembled with Chl a (natural protein)
chain: REQVKDSNGNPVKRGAKYFIQPAKSNGGGLVPAAINILPFCPLGITQTLLPYQPGLPVSFGYEPVIVGTDYIYTSTTINIEFRSEIWPVCNELSKLWAVDVSSSAAKEPAIIIGGERTAPNSLFKIEEATGAHTYKLTTSSGTVGTIPGPWLGAPQLIATNDDAKTLFVKFVKVDDDAT
Question: Which “stoichiometry N” value does the source give for B1 here?
Answer: The value was 4.
